Data reported in patent CN111499746A (YUROGEN BIOSYSTEMS LLC, dated 2020).

Target: T1, 重组人IL-2蛋白 (human, UniProt P60568 21-153)
T1 construct: also called 人白介素-2; 重组表达人IL-2
Test: SPR, Biacore 3000; antibody at 333 nM, recombinant human IL-2 at 64, 32, 16, 8, 4 nM

T1 sequence (P60568 21-153 limits assumed): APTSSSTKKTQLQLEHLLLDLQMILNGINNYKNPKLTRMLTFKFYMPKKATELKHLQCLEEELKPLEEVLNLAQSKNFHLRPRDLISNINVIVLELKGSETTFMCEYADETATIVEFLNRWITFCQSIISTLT

Binder	Kd [pM]
抗人IL-2蛋白兔单克隆抗体A (antibody, V domains shown, Recombinant rabbit monoclonal antibody made in 293 cells and purified on protein A; also called 人IL-2兔单克隆抗体A) VH: QSVAESGGRLVTPGTPLTLTCTASGFSLTTYAMSWVRQAPGKGLEWIAIIYIDGTTYYGSWAKGRFTISKTSTTVDLRIISPTTEDTATYFCAKWYVGEMDLWGPGTLVTVSS VL: DIVMTQTPASVEAAVGGTVTINCQASQSVYRDNYLAWYQQKPGQRPKLLIYGTSTLASGVSSRFKGSGSGTQFTLTISDLECADAATYYCQSYVYSSTIDNAFGGGTEVVVKG	899
抗人IL-2蛋白兔单克隆抗体B (antibody, V domains shown, Recombinant rabbit monoclonal antibody made in 293 cells and purified on protein A; in the Biacore assay it is unlabelled; also called 人IL-2兔单克隆抗体B) VH: QSLEESGGRLVTPGGSLTLTCTVSGIDLSTGGVSWVRQAPGKGLEWIGIISRHTNTYYASWAKGRFTISKTSSTTVDVKITSPTIEDTATYYCARVSSGDGLYAFDPWGPGTLVTVSS VL: AIEMTQTPSPVSAAVGGTVTINCQASEDIETYLAWYQQKPGQPPRLLIYSGSTIASGVSSHFKGSGSGTEFTLTISDLECADAATYYCQCTSYASGYWNQAFGGGTEVVVRG	293
